Source: publication PMC7337067, “Cryo-electron microscopic and X-ray crystallographic analysis of the light-driven proton pump proteorhodopsin reveals a pentameric assembly” (Journal of Structural Biology: X, 2020)

Molecular target: the molecule itself
Assay: crystal structure; 3D crystals of purified GPR, 50 mM MES pH 6, 25 mM MnCl2, 30% PEG 400; anisotropic diffraction to 4.44 Å; molecular replacement with pentameric HOT75BPR (PDB 4KLY); no atomic model built

B1: green-light absorbing proteorhodopsin (GPR), untagged (natural protein, γ-proteobacterium)
chain: MAGGGDLDASDYTGVSFWLVTAALLASTVFFFVERDRVSAKWKTSLTVSGLVTGIAFWHYMYMRGVWIETGDSPTVFRYIDWLLTVPLLICEFYLILAAATNVAGSLFKKLLVGSLVMLVFGYMGEAGIMAAWPAFIIGCLAWVYMIYELWAGEGKSACNTASPAVQSAYNTMMYIIIFGWAIYPVGYFTGYLMGDGGSALNLNLIYNLADFVNKILFGLIIWNVAVKESSNA
modifications: all-trans retinal covalently linked via a Schiff base to a conserved lysine
notes: N-terminal methionine added to the construct; theoretical MW of the monomer 25.5 kDa; Stop codon placed before the HRV 3C site and decahistidine-tag of pZUDF21, so no tag on the protein; Pentamer by crystallography and cryo-EM; also called untagged GPR; tag-free GPR; source: E. coli BL21(DE3) Rosetta2 (pZUDF21stop); purified from Cymal-5 solubilized membranes (Q Sepharose IEC, Superdex 200 SEC); …
- stoichiometry N: 5
